From patent US20250073307A1 (Chugai, published 2025)
Where two headings read alike, the source gives them in different places.

T1: mouse CXCR3 (mCXCR3) expressed on Ba/F3 transfectant cells (mouse, UniProt O88410 1-367)
T1 sequence (looked up): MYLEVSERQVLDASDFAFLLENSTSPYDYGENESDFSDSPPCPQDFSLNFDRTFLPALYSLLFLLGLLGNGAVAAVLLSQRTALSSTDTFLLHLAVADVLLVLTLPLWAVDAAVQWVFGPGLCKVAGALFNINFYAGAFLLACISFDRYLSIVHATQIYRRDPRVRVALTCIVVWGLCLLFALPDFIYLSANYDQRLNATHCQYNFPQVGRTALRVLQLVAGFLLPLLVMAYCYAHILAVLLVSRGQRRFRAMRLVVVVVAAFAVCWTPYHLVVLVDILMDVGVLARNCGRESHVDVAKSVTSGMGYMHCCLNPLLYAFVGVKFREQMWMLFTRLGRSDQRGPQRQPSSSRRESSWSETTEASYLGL


Columns and labels:
Experiment in all cases: cell-based or functional assay
[1] = target: T1, mouse CXCR3 (mCXCR3) expressed on Ba/F3 …
[2] = target: T1, mouse CXCR3 (mCXCR3) expressed on Ba/F3 …; remark: listed apart in the source
[3] = target: T1, mouse CXCR3 (mCXCR3) expressed on Ba/F3 …; remark: listed apart in the source
[4] = target: T1, mouse CXCR3 (mCXCR3) expressed on Ba/F3 …; remark: listed apart in the source
[5] = target: T1, mouse CXCR3 (mCXCR3) expressed on Ba/F3 …; remark: listed apart in the source

Binder | cell migration-inducing activity (BaF3/mCXCR3 transwell) at 3 nM, relative to hCXCL10R75A Fc fusion = 100% [2] [%] | cell migration-inducing activity (BaF3/mCXCR3 transwell) at 10 nM, relative to hCXCL10R75A Fc fusion = 100% [2] [%] | cell migration-inducing activity (BaF3/mCXCR3 transwell) at 30 nM, relative to hCXCL10R75A Fc fusion = 100% [2] [%] | cell migration-inducing activity (BaF3/mCXCR3 transwell) at 100 nM, relative to hCXCL10R75A Fc fusion = 100% [2] [%] | cell migration-inducing activity (BaF3/mCXCR3 transwell) at 300 nM, relative to hCXCL10R75A Fc fusion = 100% [2] [%] | cell migration-inducing activity (BaF3/mCXCR3 transwell) at 1000 nM, relative to hCXCL10R75A Fc fusion = 100% [2] [%] | cell migration-inducing activity at 3 nM, relative to hCXCL10R75A.0670 Fc fusion = 100% [3] [%] | cell migration-inducing activity at 10 nM, relative to hCXCL10R75A.0670 Fc fusion = 100% [3] [%] | cell migration-inducing activity at 30 nM, relative to hCXCL10R75A.0670 Fc fusion = 100% [3] [%] | cell migration-inducing activity at 100 nM, relative to hCXCL10R75A.0670 Fc fusion = 100% [3] [%] | cell migration-inducing activity at 300 nM, relative to hCXCL10R75A.0670 Fc fusion = 100% [3] [%] | cell migration-inducing activity at 1000 nM, relative to hCXCL10R75A.0670 Fc fusion = 100% [3] [%] | other results
hCXCL10R75A.0642-G1T4k.one//VHn-G1T4h.one.H435R (Fc fusion) chain 1: VPLSRTVRCTCISISNQCVNPRSLEKLEIIPASQFCPRVEIIATMKKKGEKRCLNPESKCIKNLLKAVSKERSKASPEPKSSDKTHTCPPCPAPELRRGPSVFLFPPKPKDTLMISRTPEVTCVVVDVSHEDPEVKFNWYVDGVEVHNAKTKPREEQYNSTYRVVSVLTVLHQDWLNGKEYKCKVSNKGLPSSIEKTISKAKGQPREPQVCTLPPSREEMTKNQVSLWCLVKGFYPSDIAVEWESNGQPENNYKTTPPVLDSDGSFFLYSKLTVDKSRWQEGNVFSCSVMHEALHNHYTQKSLSLSP chain 2: EPKSSDKTHTCPPCPAPELRRGPSVFLFPPKPKDTLMISRTPEVTCVVVDVSHEDPEVKFNWYVDGVEVHNAKTKPREEQYNSTYRVVSVLTVLHQDWLNGKEYKCKVSNKGLPSSIEKTISKAKGQPREPQVYTLPPSRCEMTKNQVSLSCAVKGFYPSDIAVEWESNGQPENNYKTTPPVLDSDGSFFLVSKLTVDKSRWQEGNVFSCSVMHEALHNRYTQKSLSLSP | 196 | 150 | 106 | 98 | 116 | 80 | – | – | – | – | – | – | cell migration-inducing activity (BaF3/mCXCR3 transwell) at 3 nM, relative to hCXCL10R75A Fc fusion = 100% [1]: 196%; cell migration-inducing activity (BaF3/mCXCR3 transwell) at 10 nM, relative to hCXCL10R75A Fc fusion = 100% [1]: 150%; cell migration-inducing activity (BaF3/mCXCR3 transwell) at 30 nM, relative to hCXCL10R75A Fc fusion = 100% [1]: 106%; cell migration-inducing activity (BaF3/mCXCR3 transwell) at 100 nM, relative to hCXCL10R75A Fc fusion = 100% [1]: 98%; cell migration-inducing activity (BaF3/mCXCR3 transwell) at 300 nM, relative to hCXCL10R75A Fc fusion = 100% [1]: 116%; cell migration-inducing activity (BaF3/mCXCR3 transwell) at 1000 nM, relative to hCXCL10R75A Fc fusion = 100% [1]: 80%
hCXCL10R75A.0613-G1T4k.one//VHn-G1T4h.one.H435R (Fc fusion) chain 1: YVLSRTPRCTCISISNQCVNPRSLEKLEIIPASQFCPRVEIIATMKKKGEKRCLNPESKCIKNLLKAVSKERSKASPEPKSSDKTHTCPPCPAPELRRGPSVFLFPPKPKDTLMISRTPEVTCVVVDVSHEDPEVKFNWYVDGVEVHNAKTKPREEQYNSTYRVVSVLTVLHQDWLNGKEYKCKVSNKGLPSSIEKTISKAKGQPREPQVCTLPPSREEMTKNQVSLWCLVKGFYPSDIAVEWESNGQPENNYKTTPPVLDSDGSFFLYSKLTVDKSRWQEGNVFSCSVMHEALHNHYTQKSLSLSP chain 2: EPKSSDKTHTCPPCPAPELRRGPSVFLFPPKPKDTLMISRTPEVTCVVVDVSHEDPEVKFNWYVDGVEVHNAKTKPREEQYNSTYRVVSVLTVLHQDWLNGKEYKCKVSNKGLPSSIEKTISKAKGQPREPQVYTLPPSRCEMTKNQVSLSCAVKGFYPSDIAVEWESNGQPENNYKTTPPVLDSDGSFFLVSKLTVDKSRWQEGNVFSCSVMHEALHNRYTQKSLSLSP | – | – | – | – | – | – | 209 | 132 | 110 | 102 | 93 | 49 | –
hCXCL10R75A.0643-G1T4k.one//VHn-G1T4h.one.H435R (Fc fusion) chain 1: YVLSRTVRCTCISISNQPVNPRSLEKLEIIPASQFCPRVEIIATMKKKGEKRCLNPESKAIKNLLKAVSKERSKASPEPKSSDKTHTCPPCPAPELRRGPSVFLFPPKPKDTLMISRTPEVTCVVVDVSHEDPEVKFNWYVDGVEVHNAKTKPREEQYNSTYRVVSVLTVLHQDWLNGKEYKCKVSNKGLPSSIEKTISKAKGQPREPQVCTLPPSREEMTKNQVSLWCLVKGFYPSDIAVEWESNGQPENNYKTTPPVLDSDGSFFLYSKLTVDKSRWQEGNVFSCSVMHEALHNHYTQKSLSLSP chain 2: EPKSSDKTHTCPPCPAPELRRGPSVFLFPPKPKDTLMISRTPEVTCVVVDVSHEDPEVKFNWYVDGVEVHNAKTKPREEQYNSTYRVVSVLTVLHQDWLNGKEYKCKVSNKGLPSSIEKTISKAKGQPREPQVYTLPPSRCEMTKNQVSLSCAVKGFYPSDIAVEWESNGQPENNYKTTPPVLDSDGSFFLVSKLTVDKSRWQEGNVFSCSVMHEALHNRYTQKSLSLSP | – | – | – | – | – | – | – | – | – | – | – | – | cell migration-inducing activity (BaF3/mCXCR3 transwell) at 3 nM, relative to hCXCL10R75A Fc fusion = 100% [5]: 126%; cell migration-inducing activity (BaF3/mCXCR3 transwell) at 10 nM, relative to hCXCL10R75A Fc fusion = 100% [5]: 100%; cell migration-inducing activity (BaF3/mCXCR3 transwell) at 30 nM, relative to hCXCL10R75A Fc fusion = 100% [5]: 129%; cell migration-inducing activity (BaF3/mCXCR3 transwell) at 100 nM, relative to hCXCL10R75A Fc fusion = 100% [5]: 141%; cell migration-inducing activity (BaF3/mCXCR3 transwell) at 300 nM, relative to hCXCL10R75A Fc fusion = 100% [5]: 124%; cell migration-inducing activity (BaF3/mCXCR3 transwell) at 1000 nM, relative to hCXCL10R75A Fc fusion = 100% [5]: 26%

More lines, main results first:

cell migration-inducing activity (BaF3/mCXCR3 transwell) at 3 nM, relative to hCXCL10R75A Fc fusion = 100% [2] [%] | cell migration-inducing activity (BaF3/mCXCR3 transwell) at 10 nM, relative to hCXCL10R75A Fc fusion = 100% [2] [%] | cell migration-inducing activity (BaF3/mCXCR3 transwell) at 30 nM, relative to hCXCL10R75A Fc fusion = 100% [2] [%] | cell migration-inducing activity (BaF3/mCXCR3 transwell) at 100 nM, relative to hCXCL10R75A Fc fusion = 100% [2] [%] | cell migration-inducing activity (BaF3/mCXCR3 transwell) at 300 nM, relative to hCXCL10R75A Fc fusion = 100% [2] [%] | cell migration-inducing activity (BaF3/mCXCR3 transwell) at 1000 nM, relative to hCXCL10R75A Fc fusion = 100% [2] [%] | cell migration-inducing activity at 3 nM, relative to hCXCL10R75A.0670 Fc fusion = 100% [3] [%] | cell migration-inducing activity at 10 nM, relative to hCXCL10R75A.0670 Fc fusion = 100% [3] [%] | cell migration-inducing activity at 30 nM, relative to hCXCL10R75A.0670 Fc fusion = 100% [3] [%] | cell migration-inducing activity at 100 nM, relative to hCXCL10R75A.0670 Fc fusion = 100% [3] [%] | cell migration-inducing activity at 300 nM, relative to hCXCL10R75A.0670 Fc fusion = 100% [3] [%] | cell migration-inducing activity at 1000 nM, relative to hCXCL10R75A.0670 Fc fusion = 100% [3] [%] | Binder | other results
174 | 144 | 109 | 107 | 153 | 163 | – | – | – | – | – | – | hCXCL10R75A.0644-G1T4k.one//VHn-G1T4h.one.H435R (Fc fusion) chain 1: VVLSRTVRCTCISISNQCVNPRSLEKLEIIPASQFCPRVEIIATMKKKGEKRCLNPESKCIKNLLKAVSKERSKASPEPKSSDKTHTCPPCPAPELRRGPSVFLFPPKPKDTLMISRTPEVTCVVVDVSHEDPEVKFNWYVDGVEVHNAKTKPREEQYNSTYRVVSVLTVLHQDWLNGKEYKCKVSNKGLPSSIEKTISKAKGQPREPQVCTLPPSREEMTKNQVSLWCLVKGFYPSDIAVEWESNGQPENNYKTTPPVLDSDGSFFLYSKLTVDKSRWQEGNVFSCSVMHEALHNHYTQKSLSLSP chain 2: EPKSSDKTHTCPPCPAPELRRGPSVFLFPPKPKDTLMISRTPEVTCVVVDVSHEDPEVKFNWYVDGVEVHNAKTKPREEQYNSTYRVVSVLTVLHQDWLNGKEYKCKVSNKGLPSSIEKTISKAKGQPREPQVYTLPPSRCEMTKNQVSLSCAVKGFYPSDIAVEWESNGQPENNYKTTPPVLDSDGSFFLVSKLTVDKSRWQEGNVFSCSVMHEALHNRYTQKSLSLSP | –
– | – | – | – | – | – | 100 | 100 | 100 | 100 | 100 | 100 | hCXCL10R75A.0670-G1T4k.one//VHn-G1T4h.one.H435R (Fc fusion) chain 1: YVLSRTVRCTCISISNQCVNPRSLEKLEIIPASQFCPRVEIIATMKKKGEKRCLNPESKCIKNLLKAVSKERSKASPEPKSSDKTHTCPPCPAPELRRGPSVFLFPPKPKDTLMISRTPEVTCVVVDVSHEDPEVKFNWYVDGVEVHNAKTKPREEQYNSTYRVVSVLTVLHQDWLNGKEYKCKVSNKGLPSSIEKTISKAKGQPREPQVCTLPPSREEMTKNQVSLWCLVKGFYPSDIAVEWESNGQPENNYKTTPPVLDSDGSFFLYSKLTVDKSRWQEGNVFSCSVMHEALHNHYTQKSLSLSP chain 2: EPKSSDKTHTCPPCPAPELRRGPSVFLFPPKPKDTLMISRTPEVTCVVVDVSHEDPEVKFNWYVDGVEVHNAKTKPREEQYNSTYRVVSVLTVLHQDWLNGKEYKCKVSNKGLPSSIEKTISKAKGQPREPQVYTLPPSRCEMTKNQVSLSCAVKGFYPSDIAVEWESNGQPENNYKTTPPVLDSDGSFFLVSKLTVDKSRWQEGNVFSCSVMHEALHNRYTQKSLSLSP | cell migration-inducing activity (BaF3/mCXCR3 transwell) at 3 nM, relative to hCXCL10R75A Fc fusion = 100% [4]: 195%; cell migration-inducing activity (BaF3/mCXCR3 transwell) at 10 nM, relative to hCXCL10R75A Fc fusion = 100% [4]: 146%; cell migration-inducing activity (BaF3/mCXCR3 transwell) at 30 nM, relative to hCXCL10R75A Fc fusion = 100% [4]: 132%; cell migration-inducing activity (BaF3/mCXCR3 transwell) at 100 nM, relative to hCXCL10R75A Fc fusion = 100% [4]: 132%; cell migration-inducing activity (BaF3/mCXCR3 transwell) at 300 nM, relative to hCXCL10R75A Fc fusion = 100% [4]: 127%; cell migration-inducing activity (BaF3/mCXCR3 transwell) at 1000 nM, relative to hCXCL10R75A Fc fusion = 100% [4]: 24%
